# Assays:
# [1] = target: T1, CMVp495-503/HLA-A*02:01 complex (cytomegalovirus (CMV); human); test: flow cytometry, cancer cells pulsed with CMVp495-503 peptide, anti-mouse Fc secondary
# T1 construct: whole, on cells; also called CMV peptide-MHC-I complex
# Procedure: A negative control group not treated with peptide was added with DMSO. After 3 hours, centrifugation was performed at 1300 rpm for 3 minutes to remove the supernatant containing the peptide not bound to the cells, and the cells were washed with a FACS buffer and centrifuged at 1300 rpm for 3 minutes to remove the supernatant. […] After each sample was washed with 1 ml of a FACS buffer, a F(ab′)₂ antibody that specifically recognizes Alexa647 (red fluorescence)-conjugated mouse Fc was diluted 1:1200 in 100 μl of a FACS buffer, followed by reaction at 4° C. for 30 minutes. The cells were washed with 1 ml of a FACS buffer and then analyzed through flow cytometry.
# [2] = target: T2, HLA-A*02:01 expressed on the surface of cancer cells (human); test: summary table, column MHC-1 display at 4 C
# T2 construct: whole, on cells; also called cell-surface HLA-A*02:01; HLA-A2
# [3] = target: T2, HLA-A*02:01 expressed on the surface of …; test: flow cytometry, MDA-MB-231 cells (4 °C scheme of FIG. 9a), detection with C1-17
binder,measurement,setting,value
"H9#1 TCR-like antibody (antibody, mouse IgG2a, kappa, V domains shown) VH: EVQLVQSGAEVKKPGSSVKVSCKASGGTFSSYAISWVRQAPGQGLEWMGGIIPIFGTANYAQKFQGRVTITADESTSTAYMELSSLRSEDTAVYYCARGDLYYYDSSGYPLWYMDYWGQGTLVTVSS VL: ETTLTQSPGTLSLSPGERATLSCRASQSVSSSYLAWYQQKPGQAPRLVIYGASSRATGIPDRFSGSGSGTDFTLTISRLEPEDFAVYYCQDYSTYPAFTFGQGTKLEIRR",binding result,[1],binds
"H9 TCR-like antibody (antibody, mouse IgG2a, kappa, V domains shown) VH: EVQLVQSGAEVKKPGSSVKVSCKASGGTFSSYAISWVRQAPGQGLEWMGGIIPIFGTANYAQKFQGRVTITADESTSTAYMELSSLRSEDTAVYYCARGDLYYYDSSGYPRYYFDYWGQGTLVTVSS VL: ETTLTQSPGTLSLSPGERATLSCRASQSVSSSYLAWYQQKPGQAPRLVIYGASSRATGIPDRFSGSGSGTDFTLTISRLEPEDFAVYYCQHYSTSPGFTFGQGTKLEIRR",binding result,[1],binds
"C1-17 TCR-like antibody (antibody, mouse IgG2a, kappa, V domains shown) VH: EVQLVQSGAEVKKPGSSVKVSCKASGGTFSSYAISWVRQAPGQGLEWMGSIIPIFGVAEYAHKFQGRVTITADESTSTAYMELSSLRSEDTAVYYCARGDLYYYDSSGYPLWYMDYWGQGTLVTVSS VL: ETTLTQSPGTLSLSPGERATLSCRASQSVSSSYLAWYQQKPGQAPRLVIYGASTRPTGIPDRFSGSGSGTDFTLTISRLEPEDFAVYYCQDYSTYPAFTFGQGTKLEIRR",binding result,[1],binds
inCT99†CMVp480-503 fusion antibody (antibody) heavy: not shown light: SDGVRQCRGDCFDGPLMGSSSNDIQMTQSPSSLSASVGDRVTITCKSSQSLLNSRDGKNYLAWYQQKPGKAPKLLIYDASNLETGVPSRFSGSGSGTDFTFTISSLQPEDIATYFCQQYWYWMYTFGGGTKVEIKRTVAAPSVFIFPPSDEQLKSGTASVVCLLNNFYPREAKVQWKVDNALQSGNSQESVTEQDSKDSTYSLSSTLTLSKADYEKHKVYACEVTHQGLSSPVTKSFNRGEC,binding result,[2],binds
inCT99†CMVp480-510 fusion antibody (antibody) heavy: not shown light: SDGVRQCRGDCFDGPLMGSSSNDIQMTQSPSSLSASVGDRVTITCKSSQSLLNSRDGKNYLAWYQQKPGKAPKLLIYDASNLETGVPSRFSGSGSGTDFTFTISSLQPEDIATYFCQQYWYWMYTFGGGTKVEIKRTVAAPSVFIFPPSDEQLKSGTASVVCLLNNFYPREAKVQWKVDNALQSGNSQESVTEQDSKDSTYSLSSTLTLSKADYEKHKVYACEVTHQGLSSPVTKSFNRGEC,binding result,[3],no binding

# — patent publication US20230076637A1 (AJOU UNIVERSITY INDUSTRY ACADEMIC COOPERATION FOUNDATION, published 2023)
